# T1: Mouse IL-17A (mouse, UniProt Q62386 26-158, limits assumed)
# T1 construct: Bought recombinant protein; also called mice IL-17A
# T1 sequence (looked up): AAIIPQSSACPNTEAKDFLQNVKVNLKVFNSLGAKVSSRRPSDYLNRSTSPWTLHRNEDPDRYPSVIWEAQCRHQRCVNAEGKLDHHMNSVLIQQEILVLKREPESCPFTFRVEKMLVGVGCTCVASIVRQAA
# B1: Control antibody A (antibody, mouse IgG2a, kappa, V domains shown)
# VH: QVQLKESGPGLVQPSQTLSLTCTVSGFSLTNYYVHWVRQPPGKGLEWMGGVWNDGDTSYNSVLRSRLSITRDTSKSQVLLKMSSLQTEDTATYYCAREGREGFVGYYVMDAWGPGASVTVSS
# VL: DIQMTQSPSFLSASVGERVTLSCKASQNINKYLDWFQQKLGEAPKLLIYNADNLHTGIPSRFSGSGSFSDFILTISSLQPEDDATYFCLQRESWPYTFGAGTKLELKR
# notes: Corresponds to the anti-IL-17A antibody moiety of bifunctional fusion proteins A and C; also called anti-IL-17A antibody (rat 1D10 variable region, mouse IgG2a constant region); anti-IL-17A mAb
# How the values were obtained:
# Mouse IL-17A = molecular target: T1, Mouse IL-17A; test: ELISA, coated mouse IL-17A, HRP anti-mouse IgG
# Method: The plated is blocked with PBST comprising 1% BSA, 300 μL/well, and incubated at 25° C. for at least 1 hour. The plate is washed with PBST for 5 times. Samples to be tested is added at a specific concentration, which are diluted in PBST comprising 1% BSA, 100 μL/well, and incubated at 25° C. for 1 hour. The plate is washed with PBST for 5 times. Then a horse radish peroxidase labeled anti-mouse IgG antibody (1:10,000, in PEST comprising 1% BSA) (Abeam, product No. Ab7068) is added, 100 U L/well, and incubated at 25° C. for 1 hour. The plate is washed with PBST for 5 times. […] 1M H₂SO₄is added with 100 μL/well to terminate the colorimetric development. The Absorbance at 450 nm is read on ELISA.
# Human IL-17A = Human IL-17A (human, UniProt Q16552 24-155); test: cell-based or functional assay
# Chain of Human IL-17A (Q16552 24-155 limits assumed): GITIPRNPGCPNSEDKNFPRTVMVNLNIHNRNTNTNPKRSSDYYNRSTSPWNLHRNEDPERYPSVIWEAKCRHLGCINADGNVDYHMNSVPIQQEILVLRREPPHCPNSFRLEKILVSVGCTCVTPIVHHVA
binder,measurement,setting,value
B1,binding result,Mouse IL-17A,binds
same,IC50 for inhibiting GROα secretion from HT-29 cells induced by IL-17A,Human IL-17A,0.532 nM

# From patent US20160340422A1 (BEIJING HANMI PHARMACEUTICAL, published 2016)
